Reference: patent US20080292615
Changes are numbered by the printed parent chain.

Assays:
[1] = test system: T1, Peptide P1 (corneodesmosin fragment with L at position 40 of L20815)
T1 sequence: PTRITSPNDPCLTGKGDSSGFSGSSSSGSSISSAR

[2] = test system: T2, Peptide P2 (corneodesmosin fragment with F at position 40 of L20815)
T2 sequence: T1 sequence with L12F

With chymotrypsin the “products of proteolysis after exposure of the peptide to chymotrypsin” value [1] was “peptide P1 with L at position 40 of L20815 gives two products of proteolysis: PTRITSPNDPCL40TGKGDSSGF (SEQ ID NO 23) and SGSSSSGSSISSAR (SEQ ID NO 24)” and the “products of proteolysis after exposure of the peptide to chymotrypsin” value [2] was “peptide P2 with F at position 40 of L20815 gives three small peptides PTRITSPNDPCF (SEQ ID NO 25), TGKGDSSGF (SEQ ID NO 26) and SGSSSSGSSISSAR (SEQ ID NO 24)”.
